Patent US20140314793A1 (BIOINVENT INTERNATIONAL, published 2014)

Key:
[1] = molecular target: T1, intercellular cell adhesion molecule-1 (ICAM-1) on the surface of human cells (human, UniProt P05362 28-532); test: flow cytometry, AF647 Zenon-labelled IgG
T1 construct: whole, on cells; Endogenous antigen; also called CD54

[2] = molecular target: T1, intercellular cell adhesion molecule-1 …; test: flow cytometry on patient bone marrow cells
[3] = molecular target: T1, intercellular cell adhesion molecule-1 …; test: FACS of bone marrow cells, patient 1
[4] = molecular target: T1, intercellular cell adhesion molecule-1 …; test: FACS of bone marrow cells, patient 2
[5] = molecular target: T1, intercellular cell adhesion molecule-1 …; test: FACS of bone marrow cells, patient 4
[6] = molecular target: T1, intercellular cell adhesion molecule-1 …; test: FACS of bone marrow cells, patient 5
[7] = molecular target: T1, intercellular cell adhesion molecule-1 …; test: FACS of bone marrow cells, patient 6
[8] = molecular target: T1, intercellular cell adhesion molecule-1 …; test: FACS of bone marrow cells, patient 7
[9] = molecular target: T1, intercellular cell adhesion molecule-1 …; test: FACS of bone marrow cells, patient 8
[10] = molecular target: T1, intercellular cell adhesion molecule-1 …; test: FACS of bone marrow cells, patient 9
[11] = molecular target: T1, intercellular cell adhesion molecule-1 …; test: FACS of bone marrow cells, patient 10
[12] = molecular target: T1, intercellular cell adhesion molecule-1 …; test: FACS of bone marrow cells, patient 11
[13] = molecular target: T1, intercellular cell adhesion molecule-1 …; test: FACS of bone marrow cells, patient 12
[14] = molecular target: T1, intercellular cell adhesion molecule-1 …; test: FACS of bone marrow cells, patient 13
[15] = molecular target: T1, intercellular cell adhesion molecule-1 …; test: FACS of bone marrow cells, patient 14
[16] = molecular target: T1, intercellular cell adhesion molecule-1 …; test: FACS of bone marrow cells, patient 15
[17] = molecular target: T1, intercellular cell adhesion molecule-1 …; test: FACS of bone marrow cells, patient 16
[18] = molecular target: T1, intercellular cell adhesion molecule-1 …; test: FACS of bone marrow cells, patient 17
[19] = molecular target: T1, intercellular cell adhesion molecule-1 …; test: FACS of bone marrow cells, patient 18
[20] = molecular target: T1, intercellular cell adhesion molecule-1 …; test: FACS of bone marrow cells, patient 20
[21] = molecular target: T1, intercellular cell adhesion molecule-1 …; test: FACS of bone marrow cells, patient 21
[22] = molecular target: T1, intercellular cell adhesion molecule-1 …; test: FACS of bone marrow cells, patient 22
[23] = molecular target: T1, intercellular cell adhesion molecule-1 …; test: FACS of bone marrow cells, patient 19:1
[24] = molecular target: T1, intercellular cell adhesion molecule-1 …; test: FACS of bone marrow cells, patient 19:2
[25] = molecular target: T1, intercellular cell adhesion molecule-1 …; test: FACS of bone marrow cells, patient 19:3
recombinant ICAM-1 = molecular target: T2, recombinant ICAM-1 (UniProt P05362 28-480); test: ELISA on recombinant ICAM-1, luminescence
T2 construct: also called recombinant ICAM-1 protein
T2 sequence (P05362 28-480 limits assumed): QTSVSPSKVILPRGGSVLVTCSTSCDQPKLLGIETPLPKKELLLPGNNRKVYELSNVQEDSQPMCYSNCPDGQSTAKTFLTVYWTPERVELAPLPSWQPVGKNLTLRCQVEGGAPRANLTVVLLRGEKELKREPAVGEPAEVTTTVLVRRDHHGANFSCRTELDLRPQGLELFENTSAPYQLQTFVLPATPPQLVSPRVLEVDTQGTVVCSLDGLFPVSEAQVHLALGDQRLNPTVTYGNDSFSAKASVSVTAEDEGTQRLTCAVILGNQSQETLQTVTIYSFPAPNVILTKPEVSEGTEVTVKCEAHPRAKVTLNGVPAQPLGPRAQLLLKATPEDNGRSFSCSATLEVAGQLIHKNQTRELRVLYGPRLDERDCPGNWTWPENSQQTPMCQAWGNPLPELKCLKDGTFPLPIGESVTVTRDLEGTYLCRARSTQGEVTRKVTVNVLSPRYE

ICAM-2 (recombinant) = molecular target: T3, ICAM-2 (recombinant) (UniProt P13598 25-223, limits assumed); test: dose-dependent binding to recombinant protein (FIG. 12C b)
T3 sequence (looked up): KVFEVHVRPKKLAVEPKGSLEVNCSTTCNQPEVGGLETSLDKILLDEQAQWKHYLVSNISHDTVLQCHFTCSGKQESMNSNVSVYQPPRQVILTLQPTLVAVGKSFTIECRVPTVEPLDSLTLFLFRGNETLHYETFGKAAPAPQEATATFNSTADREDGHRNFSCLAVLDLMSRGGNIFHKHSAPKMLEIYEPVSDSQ

ICAM-3 (recombinant) = molecular target: T4, ICAM-3 (recombinant) (UniProt P32942 30-485, limits assumed); test: as above
T4 sequence (looked up): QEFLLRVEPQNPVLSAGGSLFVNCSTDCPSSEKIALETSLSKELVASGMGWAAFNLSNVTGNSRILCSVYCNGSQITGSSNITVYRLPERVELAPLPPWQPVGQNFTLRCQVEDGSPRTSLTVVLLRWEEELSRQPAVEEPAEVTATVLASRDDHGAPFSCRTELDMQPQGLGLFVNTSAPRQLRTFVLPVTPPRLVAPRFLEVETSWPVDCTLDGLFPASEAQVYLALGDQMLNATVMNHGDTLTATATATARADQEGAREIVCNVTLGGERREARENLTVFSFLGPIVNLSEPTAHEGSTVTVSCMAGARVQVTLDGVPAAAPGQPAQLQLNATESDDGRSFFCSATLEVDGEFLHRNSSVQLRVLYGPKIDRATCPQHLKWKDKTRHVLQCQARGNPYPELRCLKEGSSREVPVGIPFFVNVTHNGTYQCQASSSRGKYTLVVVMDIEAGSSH

[26] = molecular target: T1, intercellular cell adhesion molecule-1 …; test: flow cytometry on myeloma cells of one patient, relapse versus diagnosis
[27] = molecular target: T1, intercellular cell adhesion molecule-1 …; test: 125I-IgG saturation binding on Ramos cells at 4° C., Rosenthal-Scatchard plot
Protocol: (§1) Specific binding was determined by subtracting binding in the presence of unlabeled competing protein from total binding.
(§2) Antibody affinity constants (Kd values) and epitope numbers per cell were determined from Scatchard plot analysis according to Rosenthal et al. (Anal. Biochem. (1967) 20:525-532); Bylund and Yamamura (Methods in Neurotransmitter Analysed, New York: Raven Press Ltd., 1990); and Marquardt (J. Soc. Indust. Appl. Math. (1963) 11:431-441), as previously described (Brix et al., J. Clin. Invest. (1998) 102:283-293).
(§3) The specific binding of [¹²⁵I]IgG to the cell surface was calculated by subtracting non-specific binding (binding in the presence of excess unlabelled IgG) from the total binding.

[28] = molecular target: T1, intercellular cell adhesion molecule-1 …; test: flow cytometry on ARH-77 cells, % of maximal cell ICAM-1 binding
[29] = molecular target: T1, intercellular cell adhesion molecule-1 …; test: saturation binding of radioiodinated IgG to Ramos cells, unlabelled IgG subtracted
Protocol: as §1
(§4) Analysis was performed in triplicates.
as §3

[30] = molecular target: T1, intercellular cell adhesion molecule-1 …; test: FACS of tumor cells incubated with serially diluted AF647-BI-505 after FcγR pre-block with human IgG (receptor occupancy)
Protocol: The experiment was repeated three times and mean MFI values were calculated and plotted as a function of antibody concentration. […] The curve was fitted using a five-parameter log-log curve and XLfit software. […] Cells received treatment in triplicate and the experiment was repeated three to five times. […] In vitro PCD and in vivo anti-tumor activity were plotted as a function of receptor occupancy using curve fitting equations and data generated and described above.

[31] = molecular target: T1, intercellular cell adhesion molecule-1 …; test: 125I-IgG saturation binding, Rosenthal-Scatchard plot (legend of FIG. 5; Ramos cells in the panels, 'Raji cells' at the end of the sentence); legend of FIG. 5; Ramos cells (right panels, IgG B11), though the sentence ends '(Raji cells)'
Protocol: as §4, §2, §3

T1 sequence (P05362 28-532): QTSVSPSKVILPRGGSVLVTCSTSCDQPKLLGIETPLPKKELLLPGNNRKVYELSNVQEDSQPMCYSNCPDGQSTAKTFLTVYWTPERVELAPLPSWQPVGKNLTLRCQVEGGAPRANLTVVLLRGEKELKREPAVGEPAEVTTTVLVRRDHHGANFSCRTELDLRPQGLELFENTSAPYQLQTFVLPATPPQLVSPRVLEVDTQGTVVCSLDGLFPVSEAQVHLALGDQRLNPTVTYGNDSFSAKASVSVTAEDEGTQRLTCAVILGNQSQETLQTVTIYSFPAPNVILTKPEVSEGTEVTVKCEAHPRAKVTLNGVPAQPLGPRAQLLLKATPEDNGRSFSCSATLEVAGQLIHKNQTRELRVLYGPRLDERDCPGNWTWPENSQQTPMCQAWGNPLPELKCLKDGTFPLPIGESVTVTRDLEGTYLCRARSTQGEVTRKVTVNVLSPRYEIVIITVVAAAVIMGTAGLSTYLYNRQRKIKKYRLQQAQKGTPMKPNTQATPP

B1: B11 IgG1 (BI-505), fully human anti-ICAM-1 antibody (antibody, V domains shown)
VH: EVQLLESGGGLVQPGGSLRLSCAASGFTFSNAWMSWVRQAPGKGLEWVAFIWYDGSNKYYADSVKGRFTISRDNSKNTLYLQMNSLRAEDTAVYYCARYSGWYFDYWGQGTLVTVSS
VL: QSVLTQPPSASGTPGQRVTISCTGSSSNIGAGYDVHWYQQLPGTAPKLLIYDNNNRPSGVPDRFSGSKSGTSASLAISGLRSEDEADYYCQSYDSSLSAWLFGGGTKLTVL
notes: That 6 is VH and 8 is VL follows only from the order 'VH and VL'; also called IgG B11
[1]
  fold binding, Ramos versus NK cells: 23 fold
  fold binding, Ramos versus monocyte cells: 3.7 fold
  fold binding, Ramos versus peripheral blood B lymphocytes: 8.3 fold
[2]
  fold expression of the epitope, myeloma cells versus normal B cells: 10 fold
[3]
  fold increase of BI-505 epitope on MM cells compared to normal B cells: 55 fold
[4]
  fold increase of BI-505 epitope on MM cells compared to normal B cells: 8 fold
[5]
  fold increase of BI-505 epitope on MM cells compared to normal B cells: 9 fold
[6]
  fold increase of BI-505 epitope on MM cells compared to normal B cells: 9 fold
[7]
  fold increase of BI-505 epitope on MM cells compared to normal B cells: 9 fold
[8]
  fold increase of BI-505 epitope on MM cells compared to normal B cells: 45 fold
[9]
  fold increase of BI-505 epitope on MM cells compared to normal B cells: 12 fold
[10]
  fold increase of BI-505 epitope on MM cells compared to normal B cells: 18 fold
[11]
  fold increase of BI-505 epitope on MM cells compared to normal B cells: 4 fold
[12]
  fold increase of BI-505 epitope on MM cells compared to normal B cells: 10 fold
[13]
  fold increase of BI-505 epitope on MM cells compared to normal B cells: 16 fold
[14]
  fold increase of BI-505 epitope on MM cells compared to normal B cells: 47 fold
[15]
  fold increase of BI-505 epitope on MM cells compared to normal B cells: 5 fold
[16]
  fold increase of BI-505 epitope on MM cells compared to normal B cells: 27 fold
[17]
  fold increase of BI-505 epitope on MM cells compared to normal B cells: 3 fold
[18]
  fold increase of BI-505 epitope on MM cells compared to normal B cells: 11 fold
[19]
  fold increase of BI-505 epitope on MM cells compared to normal B cells: 8 fold
[20]
  fold increase of BI-505 epitope on MM cells compared to normal B cells: 27 fold
[21]
  fold increase of BI-505 epitope on MM cells compared to normal B cells: 4 fold
[22]
  fold increase of BI-505 epitope on MM cells compared to normal B cells: 6 fold
[23]
  fold increase of BI-505 epitope on MM cells compared to normal B cells: 10 fold
[24]
  fold increase of BI-505 epitope on MM cells compared to normal B cells: 6 fold
[25]
  fold increase of BI-505 epitope on MM cells compared to normal B cells: 4 fold
Recombinant ICAM-1
  EC50 (read off the curve): ~300 pM
ICAM-2 (recombinant)
  binding result: no binding
ICAM-3 (recombinant)
  binding result: no binding
[26]
  fold expression of the epitope after first relapse: 2 fold
[27]
  Kd: ~200 pM
[28]
  EC50 (read off the curve): ~0.05 µg/mL
[29]
  EC50 (read off the curve): ~300 pM
[30]
  EC50 (read off the curve): ~0.4 µg/mL
[31]
  Kd: ~300 pM

B2: BI-505 IgG4 (antibody, V domains shown)
VH: EVQLLESGGGLVQPGGSLRLSCAASGFTFSNAWMSWVRQAPGKGLEWVAFIWYDGSNKYYADSVKGRFTISRDNSKNTLYLQMNSLRAEDTAVYYCARYSGWYFDYWGQGTLVTVSS
VL: QSVLTQPPSASGTPGQRVTISCTGSSSNIGAGYDVHWYQQLPGTAPKLLIYDNNNRPSGVPDRFSGSKSGTSASLAISGLRSEDEADYYCQSYDSSLSAWLFGGGTKLTVLG
Recombinant ICAM-1
  EC50 (read off the curve): ~200 pM
[28]
  EC50 (read off the curve): ~0.05 µg/mL

B3: BI-505 IgG1 N297Q (antibody, V domains shown)
VH: EVQLLESGGGLVQPGGSLRLSCAASGFTFSNAWMSWVRQAPGKGLEWVAFIWYDGSNKYYADSVKGRFTISRDNSKNTLYLQMNSLRAEDTAVYYCARYSGWYFDYWGQGTLVTVSS
VL: QSVLTQPPSASGTPGQRVTISCTGSSSNIGAGYDVHWYQQLPGTAPKLLIYDNNNRPSGVPDRFSGSKSGTSASLAISGLRSEDEADYYCQSYDSSLSAWLFGGGTKLTVLG
notes: also called Fc-mut; BI-505N297Q
Recombinant ICAM-1
  EC50 (read off the curve): ~200 pM
[28]
  EC50 (read off the curve): ~0.05 µg/mL
